Test results reported in PMC2132560 (The Journal of Cell Biology, 1997).

B1: GST-transportin1 fusion protein (natural protein)
chain: MEYEWKPDEQGLQQILQLLKESQSPDTTIQRTVQQKLEQLNQYPDFNNYLIFVLTKLKSEDEPTRSLSGLILKNNVKAHFQNFPNGVTDFIKSECLNNIGDSSPLIRATVGILITTIASKGELQNWPDLLPKLCSLLDSEDYNTCEGAFGALQKICEDSAEILDSDVLDRPLNIMIPKFLQFFKHSSPKIRSHAVACVNQFIISRTQALMLHIDSFIENLFALAGDEEPEVRKNVCRALVMLLEVRMDRLLPHMHNIVEYMLQRTQDQDENVALEACEFWLTLAEQPICKDVLVRHLPKLIPVLVNGMKYSDIDIILLKGDVEEDETIPDSEQDIRPRFHRSRTVAQQHDEDGIEEEDDDDDEIDDDDTISDWNLRKCSAAALDVLANVYRDELLPHILPLLKELLFHHEWVVKESGILVLGAIAEGCMQGMIPYLPELIPHLIQCLSDKKALVRSITCWTLSRYAHWVVSQPPDTYLKPLMTELLKRILDSNKRVQEAACSAFATLEEEACTELVPYLAYILDTLVFAFSKYQHKNLLILYDAIGTLADSVGHHLNKPEYIQMLMPPLIQKWNMLKDEDKDLFPLLECLSSVATALQSGFLPYCEPVYQRCVNLVQKTLAQAMLNNAQPDQYEAPDKDFMIVALDLLSGLAEGLGGNIEQLVARSNILTLMYQCMQDKMPEVRQSSFALLGDLTKACFQHVKPCIADFMPILGTNLNPEFISVCNNATWAIGEISIQMGIEMQPYIPMVLHQLVEIINRPNTPKTLLENTAITIGRLGYVCPQEVAPMLQQFIRPWCTSLRNIRDNEEKDSAFRGICTMISVNPSGVIQDFIFFCDAVASWINPKDDLRDMFCKILHGFKNQVGDENWRRFSDQFPLPLKERLAAFYGV

Legend:
[1] = target: RanGTP (UniProt P62826 1-216); experiment: native gel or EMSA
[2] = target: B1; experiment: native gel or EMSA

Row | binding result [1] | binding result [2] | Binder
1 | binds | – | B1
2 | – | binds | recombinant hnRNP A1 protein (natural protein, human, UniProt P09651-2 1-320, looked up) MSKSESPKEPEQLRKLFIGGLSFETTDESLRSHFEQWGTLTDCVVMRDPNTKRSRGFGFVTYATVEEVDAAMNARPHKVDGRVVEPKRAVSREDSQRPGAHLTVKKIFVGGIKEDTEEHHLRDYFEQYGKIEVIEIMTDRGSGKKRGFAFVTFDDHDSVDKIVIQKYHTVNGHNCEVRKALSKQEMASASSSQRGRSGSGNFGGGRGGGFGGNDNFGRGGNFSGRGGFGGSRGGGGYGGSGDGYNGFGNDGSNFGGGGSYNDFGNYNNQSSNFGPMKGGNFGGRSSGPYGGGGQYFAKPRNQGGYGGSSSSSSYGSGRRF
